Reference: publication PMC4022879, “Interactions Outside the Proteinase-binding Loop Contribute Significantly to the Inhibition of Activated Coagulation Factor XII by Its Canonical Inhibitor from Corn*^([image sbox.jpg])” (The Journal of Biological Chemistry, 2014)

Target: activated coagulation factor XI (FXIa) (Activated two-chain form, cleaved after residue 387 (precursor numbering). Heavy and light chains are disulfide-linked, and the whole is a disulfide-linked homodimer; N-glycosylated. The commercial fu)
Test: chromogenic enzyme inhibition assay; 200 pM FXIa, 500 μM S2366, 37 °C, 110 mM Tris-HCl pH 8.0, 250 mM NaCl, 1% BSA; residual activity in triplicate at at least six inhibitor concentrations; Ki from a linear fit of 1/v against inhibitor concentration
Conditions: both partners purified

activated coagulation factor XI (FXIa) (Activated two-chain form, cleaved after residue 387 (precursor numbering). Heavy and light chains are disulfide-linked, and the whole is a disulfide-linked homodimer; N-glycosylated. The commercial fu), sequence (chain, as listed by the source, chain 1 of 2): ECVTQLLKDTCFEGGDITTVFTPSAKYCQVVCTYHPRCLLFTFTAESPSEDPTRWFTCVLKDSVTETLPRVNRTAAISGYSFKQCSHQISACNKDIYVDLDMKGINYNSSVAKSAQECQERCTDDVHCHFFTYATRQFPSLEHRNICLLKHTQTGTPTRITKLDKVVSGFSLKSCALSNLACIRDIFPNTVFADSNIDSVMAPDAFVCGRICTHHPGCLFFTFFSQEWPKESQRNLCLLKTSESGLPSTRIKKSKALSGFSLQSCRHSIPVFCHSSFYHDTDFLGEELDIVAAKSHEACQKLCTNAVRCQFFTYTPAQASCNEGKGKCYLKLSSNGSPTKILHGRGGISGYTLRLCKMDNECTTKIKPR
activated coagulation factor XI (FXIa) (Activated two-chain form, cleaved after residue 387 (precursor numbering). Heavy and light chains are disulfide-linked, and the whole is a disulfide-linked homodimer; N-glycosylated. The commercial fu), sequence (chain, as listed by the source, chain 2 of 2): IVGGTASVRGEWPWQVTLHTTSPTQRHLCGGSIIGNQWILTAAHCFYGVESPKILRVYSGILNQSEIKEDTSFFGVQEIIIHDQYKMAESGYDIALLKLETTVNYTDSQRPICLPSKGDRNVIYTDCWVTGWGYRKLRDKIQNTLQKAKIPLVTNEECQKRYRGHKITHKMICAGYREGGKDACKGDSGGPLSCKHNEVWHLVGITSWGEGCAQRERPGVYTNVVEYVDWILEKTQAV

Binder | Ki
corn Hageman factor inhibitor (CHFI), control protein from Zea mays seeds (natural protein, UniProt P01088 29-138, looked up, the mature protein has 127 amino acids, scissile bond Arg34-Leu35; numbers count on: the mature protein (PDB 1BEA); also called CHFI-ER; wild-type CHFI; source: bought: Enzyme Research Laboratories (from Z. mays seeds)) SAGTSCVPGWAIPHNPLPSCRWYVTSRTCGIGPRLPWPELKRRCCRELADIPAYCRCTALSILMDGAIPPGPDAQLEGRLEDLPGCPREVQRGFAATLVTEAECNLATIS | 5.4 ± 0.2 µM
CHFI-1245, full-size CHFI with Cys29 substituted by Asp (natural protein, Zea mays, UniProt P01088 29-138, looked up, numbers count on: the mature protein (PDB 1BEA); also called C29D mutant; source: E. coli Rosetta-Gami 2 DE3, purified (Ni2+-agarose); not shown: His6, N-terminal, kept; C-terminal tag of 1.5 kDa (His tag inferred from pET-28a), C-terminal, kept) SAGTSCVPGWAIPHNPLPSCRWYVTSRTDGIGPRLPWPELKRRCCRELADIPAYCRCTALSILMDGAIPPGPDAQLEGRLEDLPGCPREVQRGFAATLVTEAECNLATIS | 490 ± 110 µM
